Source: US6022955A, “Fatty acid -- pulmonary surfactant conjugates” (Abbott Laboratories, priority 1991, dated 2000)
Ends that are not written are not given here.

Key:
Format in all cases: physicochemical
[1] = Modified Wilhelmy surface balance (Langmuir trough): dynamic surface tension vs compressed surface area; conditions: 37° C.; for Equilibrum (equilibrium adsorption value): after a three (3) minute spreading time, total peptide 0.5 mg/ml; for Wilhelmy-Langmuir Trough Max (maximum dynamic surface tension) / Wilhelmy-Langmuir Trough Min (minimum dynamic surface tension): peptide/lipid admixture, total peptide 0.5 mg/ml (2%; two peptides 0.25 mg/ml each), 675 μg phospholipid, seven compression-expansion cycles, average of 3 runs
Description: The dynamic surface tension lowering properties of the peptide/lipid admixtures were studied using a modified Wilhelmy Surface Balance (Langmuir Trough). The instrument consists of an all Teflon trough and movable Teflon ribbon (dam) barrier system which completely contains and defines a variable surface area. Surface area was varied through the use of a constant rate reversible 3-phase motor to drive the Teflon barrier. A Cahn 2000 electrobalance (Cahn Instruments, Cerittos, Calif.) with a sandblasted 1 cm platinum plate and stainless steel hangdown wire was employed to determine the surface tension at the liquid-air interface. The entire apparatus was situated in a thermostated incubator set at 45° C. Surface area-surface tension measurements were made by adding 950 ml of 0.15 M NaCl to the trough. Subphase temperature was controlled during the measurements at 36-38° C.
For each experiment 27 ul of peptide/lipid admixture was applied in a random array of 13 (.congruent.2 ul) droplets to the surface of the temperature controlled subphase and allowed to spread spontaneously for 3 minutes. (The 27 ul application corresponds to 675 ug of phospholipid). The trough surface area was then cycled from a maximum (445 sq. cm) to a minimum (178 sq. cm) surface area and back to maximum at a cycling rate of 3 cycles/min (compression ratio 2.5:1). The dynamic surface tension vs surface area was recorded for 7 complete compression-expansion cycles for each application.

[2] = Adsorption rate, King-Clements system (Wilhelmy balance, stirred Teflon dish); conditions: 10 ml of diluted sample (1:50) added under constant agitation to 70 ml saline subphase; 37° C.; total peptide 0.5 mg/ml
Protocol: A procedure similar to that described by Notter, et al., Pediatric Res. 16, 515-519, (1982) was employed to determine the absorption rate in the absence of diffusion resistance. The modified Wilhelmy surface balance as described above was used. However, instead of using a Langmuir trough a round Teflon dish (5.1 cm diameter) was employed. The subphase, 70 ml of 0.15 M NaCl, was allowed to equilibrate to 37° C. in the incubator and was continuously stirred with a Teflon coated magnetic stirer. An aliquot of the peptide/lipid admixture containing 5 mg of total phospholipid was dispersed in 10 ml of 0.15 M NaCl by vortexing for 10 seconds. This dispersion was then added to the saline subphase. Surface tension lowering was monitored using a strip chart recorder connected to the electrobalance output and data collected for 20 minutes.

[3] = Pulsating bubble surfactometer (PBS); conditions: after 100 cycles (5 minutes, 20 cycles/minute); phospholipid 1 mg/ml; 37° C.; […] NaCl; mean of triplicate
Protocol: The PBS equipment (Electronetics, Buffalo, N.Y.) used was essentially equivalent to that described in detail by G. Enhorning, J. Appid. Physiol. 43, 198-203, (1977). Recordings were made of the pressure gradient across the wall of a small air bubble, communicating with ambient air by means of a narrow chimney stack, but otherwise entirely surrounded by a 40 ul volume of the peptide/lipid admixture. The admixture concentration employed for these studies was 1 mg/ml total phospholipid (0.02 mg/ml total peptide) and the diluent was 0.15 M NaCl. Immediately prior to loading the sample chamber, the diluted samples were sonicated for 15 seconds to remove any gas nuclei.
The pressure drop across the air-water interface was measured during pulsation by a pressure transducer, and the corresponding surface tension determined through the application of Young's law and the Laplace equation. Measurements were all made at 37° C. and the bubble pulsed at 20 cycles/minute to render respectively a maximum (1.1. mm) and a minimum (0.8 mm) bubble diameter. (This compression/expansion corresponds to a 50% change in the surface area of the air-water interface).

SPB (53-78): synthetic C-terminal SP-B fragment (YSVILLDTLLGRMLPQLVCRLVLRCS; ends and bridges not checked; cysteine pairing not given here; UniProt P07988 253-278, looked up, fragment)
Equilibrum (equilibrium adsorption value) [1]: 40.0 dynes/cm | Wilhelmy-Langmuir Trough Max (maximum dynamic surface tension) [1]: 49.3 dynes/cm | Wilhelmy-Langmuir Trough Min (minimum dynamic surface tension) [1]: 0.1 dynes/cm | King-Clements Adsorption (surface tension) [2]: 45.0 dynes/cm | Surface Tension Values Maximum (pulsating bubble apparatus) [3]: 55.5 dynes/cm | Surface Tension Values Minimum (pulsating bubble apparatus) [3]: 4.9 dynes/cm

B1: SPB (1-78): synthetic full length SP-B peptide, sequence based on natural SP-B (peptide, UniProt P07988 201-279, looked up)
Pulmonary …: FPIPLPYCWLCRALIKRIQAMIPKGALAVAVAQVCRVVPLVAGGICQCLAERYSVILLDTLLGRMLPQLVCRLVLRCSM
modifications: Pulmonary surfactant-associated protein B
Equilibrum (equilibrium adsorption value) [1]: 38.0 dynes/cm | Wilhelmy-Langmuir Trough Max (maximum dynamic surface tension) [1]: 45.0 dynes/cm | Wilhelmy-Langmuir Trough Min (minimum dynamic surface tension) [1]: 0.0 dynes/cm | King-Clements Adsorption (surface tension) [2]: 30.0 dynes/cm | Surface Tension Values Maximum (pulsating bubble apparatus) [3]: 49.0 dynes/cm | Surface Tension Values Minimum (pulsating bubble apparatus) [3]: 4.2 dynes/cm
